Laboratory results as given in IntAct's records for PubMed 12393858.

Target: ipp2_human PPP1R2 (UniProt P41236)
Sequence (P41236 whole entry): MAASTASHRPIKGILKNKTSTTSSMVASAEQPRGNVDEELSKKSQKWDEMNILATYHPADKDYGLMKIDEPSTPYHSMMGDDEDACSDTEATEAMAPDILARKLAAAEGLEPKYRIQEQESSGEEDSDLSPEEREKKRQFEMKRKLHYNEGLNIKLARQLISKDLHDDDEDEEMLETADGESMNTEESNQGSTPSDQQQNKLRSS

In the case of “Serine/threonine-protein kinase LMTK2 (Homo sapiens), Q8IWU2 V1356A;F1358A”, the “effect of a mutation on the interaction” value is reported as “disrupting interaction”.
